The source of these data is US20210284747A1 (CAPELLA BIOSCIENCE, published 2021).

The target in experiment [1] is Full length LIGHT T191A on HEK293FF cells (Homo sapiens (Human), UniProt O43557 1-240). In words: flow cytometry, HEK293FF, mAb at EC50. How it is done:
(§1) The day of transfection the cells were seeded in a 24-well plate at 0.6×10⁶ cells/well. Lipofectamine 2000 (ThermoFisher scientific), 3 ul, was mixed with 50 μl OptiMEM medium (GIBCO) and then added to 50 μl Opti-MEM medium containing 3 ug plasmid DNA and incubated for 20 min at RT to form DNA-Lipofectamine 2000 complexes which were then added to the HEK293FF cells and incubated at 37° C., 5% CO₂ for 24 hours. For each construct, in duplicate, 0.60×10⁶ cells/well were used in a 96 well round bottom plate. Cells were centrifuged for 3 minutes at 300×g at 4° C., the supernatant discarded and the cells washed with 150 μl FACS buffer (0.5% FBS in phosphate buffered saline). This process was repeated 3 times. […] The wells were washed 3 times as above and 50 μl/well of goat anti-human IgG FITC (1:1500 dilution in FACS buffer, SIGMA F9512-2ML) or goat anti-mouse APC (1/500 dilution in FACS buffer, BDBioscience 550826), as appropriate, was added to the wells and incubated for 30 min at 4° C. protected from the light, with shaking. The cells were then washed as above, resuspended in 100 μl of FACS buffer and binding of the antibodies to the constructs was measured using flow cytometry and a total of 10,000 cells were acquired for each sample. Controls of buffer and secondary antibody only as well as HEK293FF non transfected cells were also used.
(In general: Flow cytometry measures light scatter and fluorescence of single cells or particles in a stream.)

Experiment [2] addresses Full length LIGHT S194A on HEK293FF cells (Homo sapiens (Human), UniProt O43557 1-240). Kind of experiment: flow cytometry, HEK293FF, mAb at EC50. How it is done:
as §1

In experiment [3] the target is Full length LIGHT V196A on HEK293FF cells (Homo sapiens (Human), UniProt O43557 1-240). In words: flow cytometry, HEK293FF, mAb at EC50. As to the method:
as §1

Experiment [4] addresses Full length LIGHT R195A on HEK293FF cells (Homo sapiens (Human), UniProt O43557 1-240). In words: flow cytometry, HEK293FF, mAb at EC50. How it is done:
as §1

For experiment [5], the target named is Full length LIGHT G188A on HEK293FF cells (Homo sapiens (Human), UniProt O43557 1-240). In words: flow cytometry, HEK293FF, mAb at EC50. How it is done: as §1
Sequence of Full length LIGHT G188A on HEK293FF cells (O43557 whole entry G188A): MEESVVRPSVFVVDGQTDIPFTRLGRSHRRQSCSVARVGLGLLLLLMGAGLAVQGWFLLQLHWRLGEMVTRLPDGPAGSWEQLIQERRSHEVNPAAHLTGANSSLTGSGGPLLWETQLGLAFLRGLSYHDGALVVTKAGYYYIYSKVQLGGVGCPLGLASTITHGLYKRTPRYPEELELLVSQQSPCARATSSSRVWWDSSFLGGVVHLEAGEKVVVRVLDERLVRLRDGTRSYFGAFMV
Experiment [6] addresses Full length LIGHT W197A on HEK293FF cells (Homo sapiens (Human), UniProt O43557 1-240). Kind of experiment: flow cytometry, HEK293FF, mAb at EC50. As to the method:
as §1

The target of experiment [7] is Full length LIGHT R189A on HEK293FF cells (Homo sapiens (Human), UniProt O43557 1-240). Kind of experiment: flow cytometry, HEK293FF, mAb at EC50. How it is done:
as §1

Experiment [8] concerns the target Full length LIGHT S192A on HEK293FF cells (Homo sapiens (Human), UniProt O43557 1-240). In words: flow cytometry, HEK293FF, mAb at EC50. As to the method: as §1
Experiment [9] has as its target Full length LIGHT A190S on HEK293FF cells (Homo sapiens (Human), UniProt O43557 1-240). In words: flow cytometry, HEK293FF, mAb at EC50. As to the method:
as §1

Experiment [10] concerns the target Full length LIGHT W198A on HEK293FF cells (Homo sapiens (Human), UniProt O43557 1-240). In words: flow cytometry, HEK293FF, mAb at EC50. As to the method:
as §1

The target in experiment [11] is Full length LIGHT S193A on HEK293FF cells (Homo sapiens (Human), UniProt O43557 1-240). In words: flow cytometry, HEK293FF, mAb at EC50. How it is done: as §1
Experiment [12] concerns the target T1, Human LIGHT-32L, on II23 cells (human, UniProt O43557 1-240).
T1 construct: also called II23-LIGHT 32L
T1 chain: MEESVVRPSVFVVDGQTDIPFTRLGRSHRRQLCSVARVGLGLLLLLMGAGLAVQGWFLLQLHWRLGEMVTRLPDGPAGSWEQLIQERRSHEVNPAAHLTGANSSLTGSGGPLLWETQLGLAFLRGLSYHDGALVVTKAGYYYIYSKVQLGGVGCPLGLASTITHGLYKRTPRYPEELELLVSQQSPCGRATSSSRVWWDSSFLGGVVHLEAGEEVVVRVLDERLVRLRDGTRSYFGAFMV
Kind of experiment: flow cytometry on II23-LIGHT 32L cells, 4 ug mAb in 100 uL, goat anti-human Fc gamma-PE; signal as % of the commercial anti-LIGHT-PE. How it is done:
The cells were suspended at 1×10⁷ cells/ml and 100 uL aliquots were placed into wells of a 96-well plate, the cells spun down and washed in FACS buffer at 1800 rpm for 2 min. The cells were blocked with 1:100 dilution of anti-CD16/CD32 (eBioscience, San Diego, USA) in FACS buffer for 20 min at room temperature and then washed 1× in FACS buffer at 1800 rpm for 2 min. The cells were then resuspended in 100 uL FACS buffer+4 ug anti-membrane LIGHT mAbs or anti-LIGHT-PE (eBioscience, lot: E01621-1632) for 30 min in the dark at room temperature, followed by washing 1× in FACS buffer at 1800 rpm for 2 min and then resuspended in 100 uL FACS buffer plus 1:100 goat anti-human Fcγ-PE secondary antibody or no secondary antibody at 4° C. in the dark for 30 min. The cells were again washed 1× in FACS buffer at 1800 rpm for 2 min and fixed in 200 uL 2% paraformaldehyde overnight at 4° C. and read on a flow cytometer.

In experiment [13] the target is LIGHT without residues 81-84, stably expressed on EL4 cells (EL4-NC-LIGHT). In words: cell-based or functional assay.
The target of experiment [14] is T2, Human LIGHT stably expressed on EL4 cells (EL4-LIGHT) (human, UniProt O43557 1-240).
T2 construct: whole, on cells; also called membrane LIGHT
T2 sequence (O43557 whole entry): as the sequence (O43557 whole entry G188A) above, with A188G counted along it
In words: flow cytometry, against F19 and F23.

For experiment [15], the target named is T2, Human LIGHT stably expressed on EL4 …. Kind of experiment: flow cytometry, EL4-LIGHT cells. As to the method:
The EC50 of the 7 mAbs were calculated from binding to EL4-LIGHT cells (FIG. 1). […] Non-linear regression analysis was performed to determine the functional binding affinity measurement or EC50 for each mAb. A range of functional affinities was observed.

The target is the same in experiment [16]. Kind of experiment: flow cytometry, EL4-LIGHT cells. This is another data set of the same source.

Read-outs that look alike come from different tables or passages of the source.

Sequence of Full length LIGHT W197A on HEK293FF cells (O43557 whole entry W197A): as the sequence (O43557 whole entry G188A) above, with A188G, W197A counted along it
Sequence of Full length LIGHT S194A on HEK293FF cells (O43557 whole entry S194A): as the sequence (O43557 whole entry G188A) above, with A188G, S194A counted along it
Sequence of Full length LIGHT W198A on HEK293FF cells (O43557 whole entry W198A): as the sequence (O43557 whole entry G188A) above, with A188G, W198A counted along it
Sequence of Full length LIGHT A190S on HEK293FF cells (O43557 whole entry A190S): as the sequence (O43557 whole entry G188A) above, with A188G, A190S counted along it
Sequence of Full length LIGHT T191A on HEK293FF cells (O43557 whole entry T191A): as the sequence (O43557 whole entry G188A) above, with A188G, T191A counted along it
Sequence of Full length LIGHT R195A on HEK293FF cells (O43557 whole entry R195A): as the sequence (O43557 whole entry G188A) above, with A188G, R195A counted along it
Sequence of Full length LIGHT R189A on HEK293FF cells (O43557 whole entry R189A): as the sequence (O43557 whole entry G188A) above, with A188G, R189A counted along it
Sequence of Full length LIGHT S192A on HEK293FF cells (O43557 whole entry S192A): as the sequence (O43557 whole entry G188A) above, with A188G, S192A counted along it

B1: 3A07 chimeric IgG4 mAb (antibody, V domains shown)
VH: QVQLQQSGAELVRPGAPVTLSCKASDYTFTDSEIHWVKQTPVHGLEWIGEIDPETGGTAYNQKFKGKATLTADKSSSTAYMELRSLTSEDSAVYYCSRETDYFFDYWGQGTTLTVSS
VL: ENVLTQSPAIMSASPGEKVTMTCSASSSVSYMYWYQQRPGSSPRLLIYDTSNLASGVPVRFSGSGSGTSYSLTISRMEAEDAATYYCQQWSSYPLTFGSGTKLEIK
notes: Chimeric human IgG4 (S-to-P, L-to-E) with human CL, as m1; also called Parental 3A07
On to B1, for which the “% of WT binding” value in experiment [1] is 4%; in experiment [2] it was 1%; in [3] it was 77%; in experiment [4] it was 15%; in [5] it was 5%; in experiment [6], 1%. The “% of WT binding” value is 0% in experiment [7]; 41% in experiment [8]; 47% in experiment [9]; 82% in [10]; 0% in experiment [11]. Besides, in experiment [12], the binding result is recorded as “binds”. In addition, the “IC50, inhibition of IL-8 secretion, HT-29 + EL4-NC-LIGHT cells” value (“IC50, inhibition of IL-8 secretion” below) in experiment [13] came to 2000 pM. The “binding ratio, mAb to LIGHT trimer” value in [14] worked out at 1 mAb per LIGHT trimer. In addition, the concentration giving a half-maximal response (EC50) – broadly, the concentration needed to bring the measured effect to its halfway point – in experiment [15] was determined as 133 pM.

B2: 3C10 chimeric IgG4 mAb (antibody, V domains shown)
VH: EVQLQQSGAELVRPGASVTLSCKASDYTFTDSEIHWVKQTPVHGLEWIGEIDPETGGTAYNQKFKGKATLTADKSSSTAYMELRSLTSEDSAVYYCSRETDYFFDYWGQGTTLTVSS
VL: DVVMTQTPAIMSASPGEKVTMTCSASSSVSYMYWYQQKPGSSPRLLIYDTSNLASGVPVRFSGSGSGTSYSLTISRMEAEDAATYYCQQWSSYPLTFGAGTKLELK
notes: Chimeric human IgG4 (S-to-P, L-to-E) with human CL, as m1; also called Parental 3C10
Turning to B2, the “% of WT binding” value came to 3% in experiment [1]; 0% in experiment [2]; 78% in experiment [3]; 6% in experiment [4]; 3% in experiment [5]; 0% in [6]. In addition, the “% of WT binding” value in [7] came out at 0%; in experiment [8], 35%; in experiment [9], 40%; in [10], 86%; in experiment [11], 0%. For the same molecule, the binding result in experiment [12] is “binds”. Moreover, the “IC50, inhibition of IL-8 secretion” value in experiment [13] came out at 1900 pM. In experiment [14], the “binding ratio, mAb to LIGHT trimer” value was 1 mAb per LIGHT trimer. The response in experiment [15] was half-maximal at 118 pM (EC50).

B3: 2E08 chimeric IgG4 mAb (antibody, V domains shown)
VH: QVQMKESGAELVRPGVSVKISCKGSGYTFTDYAIHWVKQSHAKTLEWIGVISTYYGDASYNQKFKGKATMTVDKSSSTAYMELARLTSDDSAIYYCARSRGEYGNYDAMDYWGQGTSVTVSS
VL: DIVLTQSPASLAVSLGQRATISCKASQSVDYDGDSYMNWYQQKPGQPPKLLIYAASNLESGIPARFSGSGSGTDFTLNIHPVEEEDAATYYCQQSNEDPLTFGAGTKLELK
notes: Chimeric human IgG4 (S-to-P, L-to-E) with human CL, as m1; also called Parental 2E08
Turning to B3, the “% of WT binding” value in [1] was determined as 22%; in [2], 3%; in experiment [3] it was 99%; in experiment [4], 43%; in experiment [5], 44%; in [6], 0%. The “% of WT binding” value in [7] was 2%; in experiment [8], 122%; in [9] it was 93%; in experiment [10] it was 83%; in experiment [11], 0%. The binding result in experiment [12] is recorded as “binds”. In addition, the “IC50, inhibition of IL-8 secretion” value in experiment [13] worked out at 1800 pM. Moreover, the “binding ratio, mAb to LIGHT trimer” value in experiment [14] is 1 mAb per LIGHT trimer. The EC50 in experiment [15] was found to be 2730 pM.

B4: 3B04_var3 (antibody, V domains shown)
VH: QVQLVQSGAEVKKPGASVKVSCKASGYTFTDYEMHWVRQAPGQGLEWMGEIDPETGDTAYAQKFQGRVTLTADKSTSTAYMEFSSLRSEDTAVYYSCRETDYFFDYWGQGTLVTVSS
VL: DIQMTQSPSSLSASVGDRVTITCGASENIYGALNWYQRKQGKAPQLLIYGATNLADGVSSRFSGSGSGRDYTLTISSLQPEDFATYYCQNVLTTPWTFGQGTKLEIKR
notes: Human IgG4 (S241P, L248E, Kabat); also called 3B04VH3VK1
On to B4, for which the concentration giving a half-maximal response (EC50) in experiment [16] is 320 pM.

B5: 3B04_var11 (antibody, V domains shown)
VH: QVQLVQSGAEVKKPGASVKVSCKASGYTFTDYEMHWVRQAPGQGLEWMGEIDPETGDTAYAQKFQGRVTLTADKSTSTAYMEFSSLRSEDTAVYYSCRETDYFFDYWGQGTLVTVSS
VL: DIQMTQSPSSLSASVGDRVTITCGASENIYGALNWYQQKPGKAPKLLIYGATNLADGVPSRFSGSGSGRDYTLTISSLQPEDFATYYCQNVLTTPWTFGQGTKLEIKR
notes: Human IgG4 (S241P, L248E, Kabat); also called 3B04VH3VK3
Consider B5, for which the concentration giving a half-maximal response (EC50) in experiment [16] was 370 pM.

B6: 3B04_var7 (antibody, V domains shown)
VH: QVQLVQSGAEVKKPGASVKVSCKASGYTFTDYEMHWVRQAPGQGLEWMGEIDPETGDTAYAQKFQGRVTLTADKSTSTAYMEFSSLRSEDTAVYYSCRETDYFFDYWGQGTLVTVSS
VL: DIQMTQSPSSLSASVGDRVTITCGASENIYGALNWYQRKQGKAPKLLIYGATNLADGVPSRFSGSGSGRDYTLTISSLQPEDFATYYCQNVLTTPWTFGQGTKLEIKR
notes: Human IgG4 (S241P, L248E, Kabat); also called 3B04VH3VK2
Turning to B6, the EC50 in [16] came to 230 pM.
